This is an account of results in paper PMC7531512.

The target of this experiment is biotinylated human neonatal Fc receptor (FcRn) (human) (UniProt P55899). The experiment is described as follows: BLI.

pKd: −log10 of the molar value.

The substance “AlbuCORE_4 scaffold (split human serum albumin, split site 441-442) (complex)” had a pKd of 6.01.

For “AlbuCORE_3 scaffold (split human serum albumin, split site 364-365) (complex)”, the pKd is 6.12.

Regarding “AlbuCORE_6 scaffold (split human serum albumin, deletion of residue 84) (complex)”, the pKd is 5.80.

In turn, “AlbuCORE_9 scaffold (split human serum albumin, split site 281-282) (complex)” showed a pKd of 5.90. For “AlbuCORE_2 scaffold (split human serum albumin, split site 300-301) (complex)” the value was 6.24. The value for “AlbuCORE_1 scaffold (split human serum albumin, split site 339-340) (complex)” was 6.72; that for “AlbuCORE_7 scaffold (split human serum albumin, split site 171-172) (complex)” was 5.78.
